# From article doi:10.1101/485656 (bioRxiv, 2018)
# B1: full-length FtsN with a C-terminal oligohistidine tag (natural protein, Escherichia coli, UniProt P29131 1-319, looked up)
# chain: MAQRDYVRRSQPAPSRRKKSTSRKKQRNLPAVSPAMVAIAAAVLVTFIGGLYFITHHKKEESETLQSQKVTGNGLPPKPEERWRYIKELESRQPGVRAPTEPSAGGEVKTPEQLTPEQRQLLEQMQADMRQQPTQLVEVPWNEQTPEQRQQTLQRQRQAQQLAEQQRLAQQSRTTEQSWQQQTRTSQAAPVQAQPRQSKPASSQQPYQDLLQTPAHTTAQSKPQQAAPVARAADAPKPTAEKKDERRWMVQCGSFRGAEQAETVRAQLAFEGFDSKITTNNGWNRVVIGPVKGKENADSTLNRLKMAGHTNCIRLAAGG
# Columns and labels:
# FtsA (Escherichia coli) [1] = target: FtsA (Escherichia coli) (UniProt P0ABH0); test: MST
# [2] = target: FtsZ/FtsA co-filaments on a supported lipid bilayer (Escherichia coli) (UniProt P0ABH0); test: single-molecule tracking by TIRF on supported lipid bilayers
# FtsA (Escherichia coli) [3] = target: FtsA (Escherichia coli) (UniProt P0ABH0); test: TIRF colocalisation on supported lipid bilayers
# [4] = target: FtsZ/FtsA co-filaments on a supported lipid bilayer (Escherichia coli) (UniProt P0ABH0); test: TIRF colocalisation on supported lipid bilayers
# AUC = target: the molecule itself; test: AUC
molecule,measurement,setting,value
FtsN_(cyto)His (peptide),Kd,FtsA (Escherichia coli) [1],324 nM
same,average duration of confinement,[2],0.41 s
same,"frequency of confinement events, fold over the DDEE mutant",[2],3 fold
same,"weight of the population with short displacements, fold over FtsN (cyto-DDEE)His",[2],3 fold
same,"weighted contribution of the confined population, fold over FtsN (cyto-DDEE)His",[2],2 fold
same,Pearson correlation coefficient of colocalisation with FtsA,FtsA (Escherichia coli) [3],0.8
same,Pearson correlation coefficient of colocalisation with FtsZ,[4],0.86
same,fold lower colocalization efficiency with GMPCPP against GTP,[4],1.5 fold
FtsN_(cyto-D5N)His (peptide),Kd,FtsA (Escherichia coli) [1],160 nM
same,Pearson correlation coefficient of colocalisation with FtsZ,[4],0.75
FtsQ_(cyto)His (peptide),Pearson correlation coefficient of colocalisation with FtsZ,[4],0.4
FtsZ (natural protein),Pearson correlation coefficient of FtsA/FtsZ colocalisation,FtsA (Escherichia coli) [3],0.79
B1,binding result,AUC,binds
